Experimental data published in patent publication US7164008B2, “Isolated complexes of endotoxin and MD-2” (priority 2003, dated 2007).

Test system: human airway epithelia
Experiment: Endotoxin responsiveness of primary human airway epithelia (HBD-2 mRNA real time PCR, NF-κB-luciferase)
Type: cell-based
Conditions: N. meningitidis LOS-sCD14 5 ng LOS/ml, 24 hr, HBD-2 real time PCR
Experimental: FIG. 6 depicts endotoxin responsiveness of well-differentiated primary cultures of human airway epithelia. Polarized epithelia were treated with NTHi LOS (100 ng/ml), sCD14 (100 ng/ml) and LBP (250 ng/ml) by apical application in a 50 μl volume. Twenty-four hours later, epithelia were harvested and analyzed for HBD-2 mRNA expression by real time PCR. As depicted in FIG. 6A, apical stimulation of airway epithelia with NTHi LOS induced little change in HBD-2 MRNA expression (2 epithelia/trial, n=3 different donors, * indicates p<0.05). In contrast, IL-1β markedly induces HBD-2 mRNA. FIG. 6B depicts the polarity of epithelial responses to IL-1β and NTHi LOS. […]
FIG. 9 depicts the effects of MD-2 complementation on endotoxin responsiveness in human airway epithelia. […] Fold increase in HBD-2 mRNA expression were quantified by real time PCR. […] NF-κB-luciferase activity was measured 24 hr following endotoxin treatment (n=5 epithelia/condition, * indicates p<0.05). […] 24 hr after endotoxin treatment, HBD-2 expression was quantified by real time PCR. […]
Well differentiated human airway epithelia were treated with N. meningitidis LOS-sCD14 (5 ng LOS/ml), with or without the addition of cell culture supernatants containing rMD-2. […] HBD-2 expression was quantified by real time PCR. […]
Real-time PCR was employed to detect human β-defensin-2 and MD-2 and to quantify changes in expression. […]

B1: wt MD-2: soluble polyhistidine-tagged recombinant wild-type MD-2 in conditioned insect cell culture medium (protein)
chain: QKQYWVCNSSDASISYTYCDKMQYPISINVNPCIELKRSKGLLHIFYIPRRDLKQLYFNLYITVNTMNLPKRKEVICRGSDDDYSFCRALKGETVNTTISFSFKGIKFSKGKYKCVVEAISGSPEEMLFCLEFVILHQPNSNHHHHHH
With B1 the “increase of response of human airway epithelial cultures to LOS-sCD14” value was no less than 100 fold.
